In one data set the test system is T1, Pep2-8.
T1 sequence: TVFTSWEEYLDWV

The subject of a further data set is T2, Compound 112.
T2 sequence: WNLVRIGLTR

The subject of another data set is T3, Compound 29.
T3 sequence: SGCFIPWNLQRIGLLC

In the next data set the test system is T4, Compound 26.
T4 sequence: SGCFIPWNLQRIGLLC

PCSK9-R167A:R215A:R218A: the “FXIa cleavage of the P′ helix (immunoblot)” value in the data set on Pep2-8 is reported as “largely prevented cleavage of the P′ helix by FXIa”; in the data set on Compound 112, “able to increase the FXIa-mediated cleavage of the P′ helix at R160-I161 in a similar fashion as shown for Fab33”; in the data set on Compound 29, “accelerated the cleavage reaction, leading to almost complete cleavage of the P′ helix”; in the data set with Compound 26, “accelerated the cleavage reaction, leading to almost complete cleavage of the P′ helix”.
